EC50 data for one substance are collected here from patent publication US20230014722A1.

The test has as its target cynomolgus PD-1 (Sino Biological), coated on plates (cynomolgus) (UniProt B0LAJ3). The experiment in a line: ELISA, plates coated with cynomolgus PD-1 at 1 µg/ml.

cynomolgus PD-1 (Sino Biological), coated on plates (cynomolgus), sequence (B0LAJ3 entry or part of it limits assumed): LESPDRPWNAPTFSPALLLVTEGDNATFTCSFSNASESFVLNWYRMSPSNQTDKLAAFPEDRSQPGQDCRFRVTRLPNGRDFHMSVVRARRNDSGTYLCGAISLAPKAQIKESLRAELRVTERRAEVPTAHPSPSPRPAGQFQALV

As usually defined, the EC50 is the concentration at which the effect is half-maximal. Low values mean a more potent agent, high ones a less potent agent. In turn, Keytruda (antibody) showed an EC50 of 0.23 nM.
